In doi:10.1101/2021.06.14.448427 (bioRxiv, 2021):
Values belong to the binder of their own block, whether it stands above or below them.

What was measured:
[1] = target: T1, NTF of c-CDCP1 Cut 2 ectodomain (ending after R368) (human, UniProt Q9H5V8 30-368); test: SEC
T1 sequence (looked up): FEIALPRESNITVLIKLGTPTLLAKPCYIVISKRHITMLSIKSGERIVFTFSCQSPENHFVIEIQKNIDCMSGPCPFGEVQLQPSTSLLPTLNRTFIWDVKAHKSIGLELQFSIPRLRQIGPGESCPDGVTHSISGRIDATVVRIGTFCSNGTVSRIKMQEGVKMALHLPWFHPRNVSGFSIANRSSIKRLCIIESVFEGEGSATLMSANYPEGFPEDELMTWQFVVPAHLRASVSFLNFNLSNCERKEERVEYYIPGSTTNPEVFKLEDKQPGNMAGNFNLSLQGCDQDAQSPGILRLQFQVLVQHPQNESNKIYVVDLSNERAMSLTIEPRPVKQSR

[2] = target: T2, NTF of c-CDCP1 Cut 3 ectodomain (ending after K369) (human, UniProt Q9H5V8 30-369); test: co-purification after co-transfection
T2 sequence (looked up): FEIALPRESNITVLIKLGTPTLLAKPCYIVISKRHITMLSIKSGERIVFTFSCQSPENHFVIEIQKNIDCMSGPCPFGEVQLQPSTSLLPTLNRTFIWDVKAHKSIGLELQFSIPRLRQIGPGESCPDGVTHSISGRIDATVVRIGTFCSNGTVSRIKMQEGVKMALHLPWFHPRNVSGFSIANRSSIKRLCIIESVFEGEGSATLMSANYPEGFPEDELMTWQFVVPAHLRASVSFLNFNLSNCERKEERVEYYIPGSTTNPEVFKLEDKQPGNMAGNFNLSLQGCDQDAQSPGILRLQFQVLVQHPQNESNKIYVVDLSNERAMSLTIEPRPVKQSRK

[3] = target: T3, NTF of c-CDCP1 Cut 1 ectodomain (ending after K365) (human, UniProt Q9H5V8 30-365); test: SEC
T3 sequence (looked up): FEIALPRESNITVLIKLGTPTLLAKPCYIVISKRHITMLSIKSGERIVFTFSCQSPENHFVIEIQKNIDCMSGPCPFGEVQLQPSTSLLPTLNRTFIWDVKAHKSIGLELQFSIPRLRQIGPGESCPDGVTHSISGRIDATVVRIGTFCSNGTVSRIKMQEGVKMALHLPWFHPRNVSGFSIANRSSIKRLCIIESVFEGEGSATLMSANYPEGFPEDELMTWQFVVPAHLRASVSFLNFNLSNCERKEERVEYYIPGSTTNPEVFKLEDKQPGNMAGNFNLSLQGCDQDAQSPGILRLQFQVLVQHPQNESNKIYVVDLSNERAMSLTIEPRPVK

binding result [1]: binds
B1: CTF ectodomain of c-CDCP1 Cut 2 (starting after R368) (domain or fragment, human, UniProt Q9H5V8 369-665, looked up)
chain: KFVPGCFVCLESRTCSSNLTLTSGSKHKISFLCDDLTRLWMNVEKTISCTDHRYCQRKSYSLQVPSDILHLPVELHDFSWKLLVPKDRLSLVLVPAQKLQQHTHEKPCNTSFSYLVASAIPSQDLYFGSFCPGGSIKQIQVKQNISVTLRTFAPSFQQEASRQGLTVSFIPYFKEEGVFTVTPDTKSKVYLRTPNWDRGLPSLTSVSWNISVPRDQVACLTFFKERSGVVCQTGRAFMIIQEQRTRAEEIFSLDEDVLPKPSFHHHSFWVNISNCSPTSGKQLDLLFSVTLTPRTVD

binding result [2]: binds
B2: CTF ectodomain of c-CDCP1 Cut 3 (starting after K369) (domain or fragment, human, UniProt Q9H5V8 370-665, looked up)
chain: FVPGCFVCLESRTCSSNLTLTSGSKHKISFLCDDLTRLWMNVEKTISCTDHRYCQRKSYSLQVPSDILHLPVELHDFSWKLLVPKDRLSLVLVPAQKLQQHTHEKPCNTSFSYLVASAIPSQDLYFGSFCPGGSIKQIQVKQNISVTLRTFAPSFQQEASRQGLTVSFIPYFKEEGVFTVTPDTKSKVYLRTPNWDRGLPSLTSVSWNISVPRDQVACLTFFKERSGVVCQTGRAFMIIQEQRTRAEEIFSLDEDVLPKPSFHHHSFWVNISNCSPTSGKQLDLLFSVTLTPRTVD

binding result [3]: binds
B3: CTF ectodomain of c-CDCP1 Cut 1 (starting after K365) (domain or fragment, human, UniProt Q9H5V8 366-665, looked up)
chain: QSRKFVPGCFVCLESRTCSSNLTLTSGSKHKISFLCDDLTRLWMNVEKTISCTDHRYCQRKSYSLQVPSDILHLPVELHDFSWKLLVPKDRLSLVLVPAQKLQQHTHEKPCNTSFSYLVASAIPSQDLYFGSFCPGGSIKQIQVKQNISVTLRTFAPSFQQEASRQGLTVSFIPYFKEEGVFTVTPDTKSKVYLRTPNWDRGLPSLTSVSWNISVPRDQVACLTFFKERSGVVCQTGRAFMIIQEQRTRAEEIFSLDEDVLPKPSFHHHSFWVNISNCSPTSGKQLDLLFSVTLTPRTVD
